Assays:
[1] = test system: patients with moderate to severe plaque psoriasis; test: PGA, 12-week open-label weekly therapy then randomized eow or withdrawal; format: in vivo, human
[2] = test system: patients with moderate to severe chronic plaque psoriasis; test: Adverse events, 120-week open-label extension study; conditions: 40 mg eow; for Hypercholesterolemia / Increased triglycerides: non-fasting
Experimental: Inclusion criteria included: moderate to severe chronic plaque psoriasis: ≧1 year and affected BSA: ≧5%. Exclusion criteria included prior TNF-antagonist therapy.
PASI responses and PGA scores were analyzed as observed. […] Thus, patients whose dosages increased were counted as non-responders from the time of dosage escalation. Adverse events were collected throughout the 120-week period.

For “Adalimumab: a human anti-TNF mAb, described in U.S. Pat. No. 6,090,382 as D2E7 (HUMIRA, Abbott Laboratories)”, the “PGA “Clear” or “Minimal”” value ([1]; open-label 40 mg weekly, Week 12) was 66%, the “PGA “Clear” or “Minimal”” value ([1]; randomized to 40 mg eow at Week 12, Week 24) was 54.4% and the “cases of tuberculosis, demyelinating disorder, lupus-like syndrome, lymphoma, or congestive heart failure” value ([2]; 120-week period) was “No cases”. For the same substance, the “AEs leading to withdrawal, patients” value ([2]; Week 0-24 (n = 92)) was 4 (4.3) n (%), the “Any AE, patients” value ([2]; Week 0-24 (n = 92)) was 69 (75.0) n (%) and the Diarrhea ([2]; Week 0-24 (n = 92)) was 5 (5.4) n (%). The Headache ([2]; Week 0-24 (n = 92)) was 7 (7.6) n (%), the “Infectious AEs, patients” value ([2]; Week 0-24 (n = 92)) was 28 (30.4) n (%) and the “Malignant AEs, patients” value ([2]; Week 0-24 (n = 92)) was 1 (1.1) n (%). For the same substance, the Nasopharyngitis ([2]; Week 0-24 (n = 92)) was 9 (9.8) n (%), the “Serious AEs, patients” value ([2]; Week 0-24 (n = 92)) was 2 (2.2) n (%) and the Sinusitis ([2]; Week 0-24 (n = 92)) was 1 (1.1) n (%). The Hypercholesterolemia ([2]; Week 0-24 (n = 92)) was 4 (4.3) n (%), the Increased triglycerides ([2]; Week 0-24 (n = 92)) was 7 (7.6) n (%) and the “AEs leading to withdrawal, patients” value ([2]; Week 25-48 (n = 78)) was 0 (0.0) n (%). The “Any AE, patients” value ([2]; Week 25-48 (n = 78)) was 33 (42.3) n (%), the Diarrhea ([2]; Week 25-48 (n = 78)) was 1 (1.3) n (%) and the Headache ([2]; Week 25-48 (n = 78)) was 0 (0.0) n (%). The “Malignant AEs, patients” value ([2]; Week 25-48 (n = 78)) was 0 (0.0) n (%), the Nasopharyngitis ([2]; Week 25-48 (n = 78)) was 5 (6.4) n (%) and the “Serious AEs, patients” value ([2]; Week 25-48 (n = 78)) was 0 (0.0) n (%). For the same substance, the Sinusitis ([2]; Week 25-48 (n = 78)) was 1 (1.3) n (%), the Hypercholesterolemia ([2]; Week 25-48 (n = 78)) was 0 (0.0) n (%) and the Increased triglycerides ([2]; Week 25-48 (n = 78)) was 1 (1.3) n (%). The “AEs leading to withdrawal, patients” value ([2]; Week 49-72 (n = 62)) was 0 (0.0) n (%), the “Any AE, patients” value ([2]; Week 49-72 (n = 62)) was 28 (45.2) n (%) and the Diarrhea ([2]; Week 49-72 (n = 62)) was 1 (1.6) n (%). The Headache ([2]; Week 49-72 (n = 62)) was 0 (0.0) n (%), the “Malignant AEs, patients” value ([2]; Week 49-72 (n = 62)) was 0 (0.0) n (%) and the Nasopharyngitis ([2]; Week 49-72 (n = 62)) was 1 (1.6) n (%). For the same substance, the “Serious AEs, patients” value ([2]; Week 49-72 (n = 62)) was 0 (0.0) n (%), the Sinusitis ([2]; Week 49-72 (n = 62)) was 1 (1.6) n (%) and the Hypercholesterolemia ([2]; Week 49-72 (n = 62)) was 1 (1.6) n (%). The Increased triglycerides ([2]; Week 49-72 (n = 62)) was 1 (1.6) n (%), the “AEs leading to withdrawal, patients” value ([2]; Week 73-96 (n = 55)) was 0 (0.0) n (%) and the “Any AE, patients” value ([2]; Week 73-96 (n = 55)) was 27 (49.1) n (%). For the same substance, the Diarrhea ([2]; Week 73-96 (n = 55)) was 0 (0.0) n (%), the Headache ([2]; Week 73-96 (n = 55)) was 0 (0.0) n (%) and the “Malignant AEs, patients” value ([2]; Week 73-96 (n = 55)) was 0 (0.0) n (%). For the same substance, the Nasopharyngitis ([2]; Week 73-96 (n = 55)) was 3 (5.5) n (%), the “Serious AEs, patients” value ([2]; Week 73-96 (n = 55)) was 0 (0.0) n (%) and the Sinusitis ([2]; Week 73-96 (n = 55)) was 3 (5.5) n (%). The Hypercholesterolemia ([2]; Week 73-96 (n = 55)) was 3 (5.5) n (%), the Increased triglycerides ([2]; Week 73-96 (n = 55)) was 1 (1.8) n (%) and the “AEs leading to withdrawal, patients” value ([2]; Week 97-120 (n = 53)) was 0 (0.0) n (%). For the same substance, the “Any AE, patients” value ([2]; Week 97-120 (n = 53)) was 25 (47.2) n (%), the Diarrhea ([2]; Week 97-120 (n = 53)) was 3 (5.7) n (%) and the Headache ([2]; Week 97-120 (n = 53)) was 0 (0.0) n (%). The “Malignant AEs, patients” value ([2]; Week 97-120 (n = 53)) was 0 (0.0) n (%), the Nasopharyngitis ([2]; Week 97-120 (n = 53)) was 2 (3.8) n (%) and the “Serious AEs, patients” value ([2]; Week 97-120 (n = 53)) was 1 (1.9) n (%). For the same substance, the Sinusitis ([2]; Week 97-120 (n = 53)) was 1 (1-9) n (%), the Hypercholesterolemia ([2]; Week 97-120 (n = 53)) was 1 (1.9) n (%) and the Increased triglycerides ([2]; Week 97-120 (n = 53)) was 0 (0.0) n (%).
